pKd: −log10 of the molar value.
How the values were obtained:
[1] = target: IL-4Rα (Homo sapiens) (UniProt P24394); conditions: cited from earlier work
[2] = target: hIL-4Rα–hIL-13Rα1 complex (human type II IL-4 receptor) (human) (UniProt P78552)
Chain of UniProt P78552 (P78552 22-343, chain 1 of 2): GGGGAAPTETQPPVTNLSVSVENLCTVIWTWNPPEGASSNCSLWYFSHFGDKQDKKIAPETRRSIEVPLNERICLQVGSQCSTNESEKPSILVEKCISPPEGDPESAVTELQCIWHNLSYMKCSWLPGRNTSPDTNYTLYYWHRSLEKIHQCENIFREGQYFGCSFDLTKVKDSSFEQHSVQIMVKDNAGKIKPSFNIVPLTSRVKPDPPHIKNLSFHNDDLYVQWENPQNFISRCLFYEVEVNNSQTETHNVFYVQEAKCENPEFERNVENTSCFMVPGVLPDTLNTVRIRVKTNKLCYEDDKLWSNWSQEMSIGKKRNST
Chain of UniProt P78552 (P24394 26-232, chain 2 of 2, further chain): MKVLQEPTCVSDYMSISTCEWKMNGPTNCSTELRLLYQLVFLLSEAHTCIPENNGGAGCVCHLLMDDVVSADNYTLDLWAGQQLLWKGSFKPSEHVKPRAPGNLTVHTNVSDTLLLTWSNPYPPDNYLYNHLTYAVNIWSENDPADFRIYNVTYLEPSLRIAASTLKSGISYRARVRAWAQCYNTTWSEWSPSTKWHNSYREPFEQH

Chain of UniProt P24394 (P24394 26-232): as the sequence (P24394 26-232, chain 2 of 2, further chain) above

Substance | pKd [1] | pKd [2]
IL-4 (from UniProt P05112) | > 9.00 | –
human interleukin-4 (hIL-4) (from UniProt P05112 25-153) (ligand) | – | 7.00
